From publication PMC11372445 (Cell Reports, 2024) come the findings set out here.

In data set [1] the target is K6 diUb phosphorylated on S65 of the proximal Ub (UniProt P0CG47, K6R). The data set is described as follows: pull-down.
Data set [2] addresses K6 diUb phosphorylated on S65 of the distal Ub (UniProt P0CG47, K6R). Put plainly: pull-down.
Data set [3] concerns the target K6 diUb phosphorylated on S65 of both Ub molecules (UniProt P0CG47, K6R). Put plainly: pull-down.
For data set [4], the target named is M1-linked diubiquitin (UniProt P0CG47). Put plainly: pull-down.
Data set [5] concerns the molecule itself. The data set is described as follows: crystal structure.
In data set [6] the target is M1-linked diubiquitin (UniProt P0CG47). Put plainly: crystal structure.
The target in data set [7] is NEMO UBAN (aa 257–364) (human, UniProt Q9Y6K9 257-364). The data set is described as follows: pull-down.

B1: GST-tagged TAB2 NZF (aa 585–693) (domain or fragment)
chain: QIPSLEEMQQLRSCNRQLQIDIDCLTKEIDLFQARGPHFNPSAIHNFYDNIGFVGPVPPKPKDQRSIIKTPKTQDTEDDEGAQWNCTACTFLNHPALIRCEQCEMPRHF
In the case of B1, the binding result in data set [1], in data set [2] and in data set [3] was “binds” in each case.

B2: NEMO UBAN (257–364) K285C/C347S chemically ubiquitinated on K285C with Ub G76C (other)
chain 1: GMQLEDLKQQLQQAEEALVAKQEVIDKLCEEAEQHKIVMETVPVLKAQADIYKADFQAERQAREKLAEKKELLQEQLEQLQREYSKLKASSQESARIEDMRKRHVEVS
chain 2: […]
Regarding B2, the binding result in data set [4] is given as “binds”.

B3: OPTN UBAN (aa 419–512) C472S, S473E (domain or fragment)
chain: DRAVLKELSEKLELAEKALASKQLQMDEMKQTIAKQEEDLETMTILRAQMEVYSEDFHAERAAREKIHEEKEQLALQLAVLLKENDAFEDGGRQ
Turning to B3, the binding result in data set [5] is given as “binds”.
With RGRWACQSCTFENEAAAVLCSICERPRLA (domain or fragment) [HOIP NZF1 (aa 351–379), as crystallised], in data set [6], the binding result is recorded as “binds”.
On to RGRWACQSCTFENEAAAVLCSICERPRLA (domain or fragment) [His6-SUMO-HOIP NZF1 (aa 351–379)], for which, in data set [7], the binding result is reported as “binds”.
